Data from article PMC6044554.

Target: InlPΔLRR5-GST fusion protein (Listeria monocytogenes)
Experiment: pull-down; GST or GST fusion bait on Glutathione Sepharose 4B incubated overnight with MDCK cell lysate; beads boiled in SDS sample buffer; Western blot with anti-afadin antibody

**Q.** Which fold decrease of afadin binding against InlP-GST does the source give for afadin (MDCK cells) (natural protein) here?
**A.** > 10 fold
